The results in this text go back to the nanobody polyreactivity screen of Harvey et al. (2022).

The nature of this series: yeast display, Sf9 membrane polyspecificity reagent, FACS + sequencing; frameworks hold sequencing errors. In short, it runs like this:
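After 36–48 hours of galactose induction, yeast (Saccharomyces cerevisiae BJ5465) displaying a synthetic nanobody library were stained at 4 °C for 1 hour with 10% biotinylated, detergent-solubilized Sf9 membrane reagent. Streptavidin microbeads enriched the stained cells before FACS sorting into low and high (top ~1%) gates on anti-HA and streptavidin fluorescence. Each clone's polyreactivity label reflects its gate of origin.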
As for “QVQLVESGGGLVQAGGSLRLSCPACGRTFNRYAMGWYRQAPGKERELVATISNSGRTYYADSVKGRFTISRDNAKNTVYLQMNSLKPEDTAVYYCAAQLPSYYKYPRHDYWGKGTQVTVSS”, the “polyreactivity (PSR sort gate)” value is “high polyreactivity”.

Take “QVQLVESGGGLVQAGGSLRLSCPASGFIFRYYAMGWYRQAPGKERELVAAISWSGGSTNYADSVKGRFTISRDNAQNTVYLQINSLKPEDTALSYCADDGTVRSWGRYYHWGQGTQVTVSS”: the “polyreactivity (PSR sort gate)” value was “low polyreactivity”.

In the case of “QVQLVESGGGLVQAGGSLRLSCPASGFTLHSYAMGWYRQAPGKERELVAAITRSGGGTYYADSVKGRFTISRDNAKNTVYLQMNSLKPEDTAVYYCAARFGGQYQHDYWGQGTQVTVSS”, the “polyreactivity (PSR sort gate)” value is “high polyreactivity”.

On to “QVQLVESGGGLVQAGGSLRLSCPASGGNFPFNGMGWSRQAPGKERELVAAISSGGRTYYADSVKGRFTISRDNAKNTVYLQMNSLKPEDTAVYYCAARTSRYYYYPYAFYWGQGTQVTVSS”, for which the “polyreactivity (PSR sort gate)” value is listed as “high polyreactivity”.

As to “QVQLVESGGGLVQAGGSLRLSCPASGLIFNSYAMGWYRQARGTERELVAAISRHGGITYYADSVKGRFTISRDHAKNTVYLQMNSLKPEDTAVYYCNADSSRRRYSSDYWGQGTQVTVSS”, the “polyreactivity (PSR sort gate)” value is “high polyreactivity”.

Regarding “QVQLVESGGGLVQAGGSLRLSCPASGRIFHRNTMGWYRPAPGKERELVAAIRSGSRTYYADSVKGRFTISRDNAKNTVYLQMNSLKPEDKAVYYCATTYGSPRYDYWGQGTQVTVSS”, the “polyreactivity (PSR sort gate)” value is “high polyreactivity”.

With “QVQLVESGGGLVQAGGSLRLSCPASGRIFQLYAMGWYRQAPGKERELVAAIRYSGDSTYYADSVKGRLTISRDNAKNTVYLQLNSLKPEDTAVYYCAARSRYGYRNKYEYWGQGTQVTVSS”, the “polyreactivity (PSR sort gate)” value is “high polyreactivity”.

As to “QVQLVESGGGLVQAGGSLRLSCPASGRTFGDYAMGWYRQAPGKERELVAAISSSGGRTYYADSVKGRFTISRDNAKNTVYLQMNSLKPEDTAVYYCAAQSKYYQYYSWGQGTQVTVSS”, the “polyreactivity (PSR sort gate)” value is listed as “high polyreactivity”.

“QVQLVESGGGLVQAGGSLRLSCPASGRTFGIYAMGWYRQAHGKERELVAAITWSGDSTYYADSVKGRFTISRDNAKNTVYLQMNSLKPEDTAVYYCAADYVGVTSVRYDYWGQGTQVTVSS”: the “polyreactivity (PSR sort gate)” value was “low polyreactivity”.

Regarding “QVQLVESGGGLVQAGGSLRLSCPASGRTFQVYAMGWYRQAPGKERELVAGITRAGSTYYADSVKGRFTISRDNAKNTVYLQMISLKPEDTAVYYCAAGWKSSYYIWRYGSWGQGTQVTVSS”, the “polyreactivity (PSR sort gate)” value was “high polyreactivity”.

In the case of “QVQLVESGGGLVQAGGSLRLSCPASGRTFVVYAMGWYRQAPGKEREFVAAITTRGNSTYYADSVKGRFTISRDNAKNTVYLQMNSLKPEDTAVYYCAAVLRLSTLTTDFGYWGQGTQVTVSS”, the “polyreactivity (PSR sort gate)” value is given as “high polyreactivity”.

“QVQLVESGGGLVQAGGSLRLSCPASGRTFYGYPMGWYRQAPGKERELVAAISRRGGSTNYADSVKGRFTISRDHAKNTVYLQMNSRKPEDTAVYSCNANYYRTHYDYWGQGTQVTVSS”: the “polyreactivity (PSR sort gate)” value was “high polyreactivity”.

As for “QVQLVESGGGLVQAGGSLRLSCPASGSIFSAYAMGWYRQAPGNEREFVAAITRRGGNTYYADSVKGRFTISRDNAKNTVYLQMNSLKPEDTAVYYCAAIRRQKGLWDYYYWGQGTQVTVSS”, the “polyreactivity (PSR sort gate)” value is “low polyreactivity”.

With “QVQLVESGGGLVQAGGSLRLSCPASGSIFWPNAMGWYRQAPGKERELVASINSGSGSTYYADSVKGRFTISRDNAKNTVYLQMNSLKPEDTAVYYCNAAGAYPYYSEDYYWGQGTQVTVSS”, the “polyreactivity (PSR sort gate)” value is recorded as “low polyreactivity”.

As for “QVQLVESGGGLVQAGGSLRLSCPASGSIFYYYAMGWYRQEPGKERELVATITWNGAGTFYADSVKGRFTISRDNAKNTVYLQMNSLKPEDTAVYYCAASWYGESGYDYWGQGSQVTVSS”, the “polyreactivity (PSR sort gate)” value is on record as “low polyreactivity”.

As to “QVQLVESGGGLVQAGGSLRLSCPASGSTFGPYAMGWYRQAPGKERELVAAISSTGGSTYYADSVKGRFTISRDNAKNTVYLQMNSLKPEDTAVYYCAAYSTYARGYWGQGTQVTVSS”, the “polyreactivity (PSR sort gate)” value was “high polyreactivity”.

“QVQLVESGGGLVQAGGSLRLSCPASGSTFSYNMGWYRPAPGKERELVAAISGSGGSTYADSVKGRFTISRDNAKKTVYLQMNSLKPEDTAVYYCATVRYWVHEYGFWGLGTQVTVSS”: the “polyreactivity (PSR sort gate)” value is reported as “high polyreactivity”.

As for “QVQLVESGGGLVQAGGSLRLSCPASGSTFTLYVMGWYRPAPGKERELVAAISSNGGRTYYADSVKGRFTISRDNAKNTVYLQMNSLKPEDTAVYDCAAGKIGRYHYDYWGQGTQVTVSS”, the “polyreactivity (PSR sort gate)” value was “high polyreactivity”.

Turning to “QVQLVESGGGLVQAGGSLRLSCPASGSTFWYYAMGWYRQAPGKERELVAAITRGGSTNYADSVKGRFTISRDNAKNTVYLQMNSLKPEDTAVYYCAKDGPQYRYYYWGQGTQVTVSS”, the “polyreactivity (PSR sort gate)” value is “high polyreactivity”.

In the case of “QVQLVESGGGLVQAGGSLRLSCPASGSTIDPNARGWYRQAPGNERELVAAISYTGGRTYYADSVKGRFTISRDNAKNTVYLQMNSLKPEDTAVYYCAVLVVGATTQDEPYFSGVEHDYWGQGTQVTVSS”, the “polyreactivity (PSR sort gate)” value was “low polyreactivity”.

In the case of “QVQLVESGGGLVQAGGSLRLSCPASGYIFYRNAMVWYRQAPGKERELVAAITYTGGRTYYADSVKGRFTISRDNAKNTVYLQMNSLNPEDTAVYYCNADGRVFVVRPYYDYEYWGQGTQVTVSS”, the “polyreactivity (PSR sort gate)” value is “low polyreactivity”.

Regarding “QVQLVESGGGLVQAGGSLRLSCSASGFIFRYNAMGWYRQAPGKEREFVAAISQGGASTYYADSVKGRFTISRDNAKNTVYLQMNSLKPEDTAVYYCNAVVDTSKYTDYYWGQGTQVTVSS”, the “polyreactivity (PSR sort gate)” value was “low polyreactivity”.

“QVQLVESGGGLVQAGGSLRLSCSASGFIFWYNAMGWYRQAPGKERELVAAISWSGGRTYYADSVKGRFTISRDNAKNTVYLQMNSLKPEDSAVYYCAAKVPRSSRSYGYWGQGTQVTVSS”: the “polyreactivity (PSR sort gate)” value was “high polyreactivity”.

With “QVQLVESGGGLVQAGGSLRLSCSASGFIFWYYAMGWYRQAPGKERELVAAISSGGSTNYADSVKGRFAISRDNAKNTVYLQLNSLIPVDTAVYYCATSSIWGSARVRWVTYYYWGQGTQVTVSS”, the “polyreactivity (PSR sort gate)” value is recorded as “low polyreactivity”.

As to “QVQLVESGGGLVQAGGSLRLSCSASGFIFYSYAMGWSRPAPGKEREFVAAISRSGGITYYADSVKGRFTISRDNAKNTVYLQMNSLKPEDTAVYYCAKVGRAVSSIKDMDSWGQGTQVTVSS”, the “polyreactivity (PSR sort gate)” value is “high polyreactivity”.

With “QVQLVESGGGLVQAGGSLRLSCSASGFTFRSYAMGWYRQAPGEEREFVAAISRRGDSTYYADSVKGRFTISRDNAKNTVYLQMNSLKPEDTAVYYCAKYGIASRYSRFDSWGQGTQVTVSS”, the “polyreactivity (PSR sort gate)” value was “high polyreactivity”.

For “QVQLVESGGGLVQAGGSLRLSCSASGFTFRTYAMGWYRQAPGKETELVAAISRDGSSTYYADSVKGRFTISRDNAKNTVYLQLKSLKPEDTAVYYCAARIIRFYTSADKLVTSRYYYWGQGTQVTVSS”, the “polyreactivity (PSR sort gate)” value was “high polyreactivity”.

In the case of “QVQLVESGGGLVQAGGSLRLSCSASGGIFSAYAMGWYRQSPGKERELVAAISRTGGSTYYADSVKGRFTISRDNAKNTVYLQMNSLKPEDTAVYYCNAVYRRYPEFDYWGQGTQVTVSS”, the “polyreactivity (PSR sort gate)” value is given as “high polyreactivity”.

Consider “QVQLVESGGGLVQAGGSLRLSCSASGHIFRTYAMGWYRQAPWKERELVAGITPNGDTTYYADSVKGRFTISRDHAKITVYLQMNSLKPEDTAVYYCDAQYSQRPADRYNSWGQGTQVTVSS”, for which the “polyreactivity (PSR sort gate)” value is “low polyreactivity”.

Turning to “QVQLVESGGGLVQAGGSLRLSCSASGITFGTYAMGWYRQAPGKERELVASITYGGTNTYYADSVKGRFTISRDNAKNTVCLQMNSLKPEDTAVYYCNADPAVSRGSIATDDYDYWVQGTQVTVSS”, the “polyreactivity (PSR sort gate)” value is “low polyreactivity”.

With “QVQLVESGGGLVQAGGSLRLSCSASGITFLANAMAWYRPATGKERELVATITSRGASSYYADSVKVRFTISRDNAKNTVYLQMNSLKPEDTAVYYCAATVRRRYERYNDWAQGTQVTVSS”, the “polyreactivity (PSR sort gate)” value is “high polyreactivity”.

Take “QVQLVESGGGLVQAGGSLRLSCSASGITFNANAMGWYRQATGKERELVAAISLSGGRTYYADSVKGRFTISRDNAKNTVYLQMNSLKPEDTAVYYCKVLGNYYGKFDYWGQGTQVTVSS”: the “polyreactivity (PSR sort gate)” value is “high polyreactivity”.

As to “QVQLVESGGGLVQAGGSLRLSCSASGITFWYNAMEWYRQAPGKERELVAAISRSAGSTYYADSVKGRFTISRDNAKNTVYLQMNSLKPEDTAVYYCAAKTPGRYYYWGQGTQVTVSS”, the “polyreactivity (PSR sort gate)” value is listed as “high polyreactivity”.

For the sequence “QVQLVESGGGLVQAGGSLRLSCSASGLTLKRYAMGWYRQAPGQERELVAAISKSGGSTYYADSVKGRFTISRDNAKNTVYLQMNSLKPEDTAVYYCAADSYNLWDDYWGQGTQVTVSS”, the “polyreactivity (PSR sort gate)” value is on record as “low polyreactivity”.

For “QVQLVESGGGLVQAGGSLRLSCSASGRIFRYNGKGWYRQAHGKERELVAVITHRSGTTSYADSVKGRFTISRDNAKNTVYLQMNSLKPEDTAVYYCARGYYKPSVGKSKRVGGNYLGQGTQVTVSS”, the “polyreactivity (PSR sort gate)” value was “high polyreactivity”.

“QVQLVESGGGLVQAGGSLRLSCSASGRTFVRNAMGWYRQAPGKERELVAAISSIGDSTYYADSVKGRFTISRDNAKNTVYLQMNSLKPEDTAVYYCNARGYVYYRMGYWGQGTQVTVSS”: the “polyreactivity (PSR sort gate)” value is “low polyreactivity”.

In the case of “QVQLVESGGGLVQAGGSLRLSCSASGSIFGSYAMGGYRQEPGNERELVAAISWRGGNTYYADSVKGRFTISRDNAKNTVYLQMNSLSPEDTAVYYCAAVAYSYGSYRRYYYWGLGTQVTVSS”, the “polyreactivity (PSR sort gate)” value is on record as “high polyreactivity”.

Regarding “QVQLVESGGGLVQAGGSLRLSCSASGSIFPAYAMGWYRQAPGKERELVASITGSGGSTYYADSVKGRFTISRDNAKNTVYLQMNSLKPEDTAVYYCNARYYVYSATVDRYYHFYYCGQGTQVTVSS”, the “polyreactivity (PSR sort gate)” value is recorded as “high polyreactivity”.

Consider “QVQLVESGGGLVQAGGSLRLSCSASGSIFSYYAMGWYRQAPGKERELVAAISRSGGSTYYADSVKGRFTISRDNAKNTVYLQMNSLKPEDTAVYYCAATRIHYPSYDYWGQGTQVTVSS”, for which the “polyreactivity (PSR sort gate)” value is “high polyreactivity”.

Take “QVQLVESGGGLVQAGGSLRLSCSASGSIFVGYAIGWYRQAPVKEMELDASISSGDDTYADSVKGRFTISRDNAKNSVYLQMNSLKPEDTAVYYCAKDSISVDCAYDYWVQGTQVTVSS”: the “polyreactivity (PSR sort gate)” value is given as “low polyreactivity”.

As for “QVQLVESGGGLVQAGGSLRLSCSASGSTFDGNAMVWYRQAPGKERELVAAITQRASNTYYADSVKGRFTISRDNAKNTVYLQMNSLKPEDTAVYYCNADFYVTSAEFYYWGQGSQVTVSS”, the “polyreactivity (PSR sort gate)” value is on record as “low polyreactivity”.
